# Laboratory results published in publication doi:10.1101/2022.02.09.479832v2 (biorxiv, 2022).
# Where two headings read alike, the source gives them in different places.
# T1: PmIleRS1 (Priestia megaterium, UniProt A0A0B6A6A8)
# T1 sequence (A0A0B6A6A8 1-921): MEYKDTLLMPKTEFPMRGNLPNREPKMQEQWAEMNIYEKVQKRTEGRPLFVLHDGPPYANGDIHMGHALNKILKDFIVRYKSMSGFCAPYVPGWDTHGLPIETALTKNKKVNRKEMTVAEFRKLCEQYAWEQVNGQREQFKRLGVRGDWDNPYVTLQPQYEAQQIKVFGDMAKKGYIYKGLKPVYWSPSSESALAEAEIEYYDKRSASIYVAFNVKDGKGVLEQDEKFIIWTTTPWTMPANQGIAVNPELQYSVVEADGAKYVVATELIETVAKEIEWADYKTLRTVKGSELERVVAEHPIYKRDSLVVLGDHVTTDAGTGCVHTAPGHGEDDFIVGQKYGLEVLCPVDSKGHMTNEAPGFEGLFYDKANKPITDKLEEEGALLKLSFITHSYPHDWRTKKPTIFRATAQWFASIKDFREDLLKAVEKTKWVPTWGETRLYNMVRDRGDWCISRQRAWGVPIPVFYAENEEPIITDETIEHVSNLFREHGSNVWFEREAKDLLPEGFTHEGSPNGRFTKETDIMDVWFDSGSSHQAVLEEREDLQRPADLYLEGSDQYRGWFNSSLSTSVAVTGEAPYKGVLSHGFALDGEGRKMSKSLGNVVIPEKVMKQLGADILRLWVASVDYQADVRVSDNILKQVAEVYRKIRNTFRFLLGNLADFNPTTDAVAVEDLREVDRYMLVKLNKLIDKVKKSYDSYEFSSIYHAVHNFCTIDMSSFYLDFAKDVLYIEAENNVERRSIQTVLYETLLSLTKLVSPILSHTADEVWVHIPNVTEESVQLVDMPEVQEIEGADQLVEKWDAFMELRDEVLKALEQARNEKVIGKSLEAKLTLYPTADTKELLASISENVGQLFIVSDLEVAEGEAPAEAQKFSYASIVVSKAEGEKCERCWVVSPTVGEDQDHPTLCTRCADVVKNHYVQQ
# T2: PmIleRS2 (Priestia megaterium, UniProt A0A0B6AVD3)
# T2 sequence (A0A0B6AVD3 1-1032): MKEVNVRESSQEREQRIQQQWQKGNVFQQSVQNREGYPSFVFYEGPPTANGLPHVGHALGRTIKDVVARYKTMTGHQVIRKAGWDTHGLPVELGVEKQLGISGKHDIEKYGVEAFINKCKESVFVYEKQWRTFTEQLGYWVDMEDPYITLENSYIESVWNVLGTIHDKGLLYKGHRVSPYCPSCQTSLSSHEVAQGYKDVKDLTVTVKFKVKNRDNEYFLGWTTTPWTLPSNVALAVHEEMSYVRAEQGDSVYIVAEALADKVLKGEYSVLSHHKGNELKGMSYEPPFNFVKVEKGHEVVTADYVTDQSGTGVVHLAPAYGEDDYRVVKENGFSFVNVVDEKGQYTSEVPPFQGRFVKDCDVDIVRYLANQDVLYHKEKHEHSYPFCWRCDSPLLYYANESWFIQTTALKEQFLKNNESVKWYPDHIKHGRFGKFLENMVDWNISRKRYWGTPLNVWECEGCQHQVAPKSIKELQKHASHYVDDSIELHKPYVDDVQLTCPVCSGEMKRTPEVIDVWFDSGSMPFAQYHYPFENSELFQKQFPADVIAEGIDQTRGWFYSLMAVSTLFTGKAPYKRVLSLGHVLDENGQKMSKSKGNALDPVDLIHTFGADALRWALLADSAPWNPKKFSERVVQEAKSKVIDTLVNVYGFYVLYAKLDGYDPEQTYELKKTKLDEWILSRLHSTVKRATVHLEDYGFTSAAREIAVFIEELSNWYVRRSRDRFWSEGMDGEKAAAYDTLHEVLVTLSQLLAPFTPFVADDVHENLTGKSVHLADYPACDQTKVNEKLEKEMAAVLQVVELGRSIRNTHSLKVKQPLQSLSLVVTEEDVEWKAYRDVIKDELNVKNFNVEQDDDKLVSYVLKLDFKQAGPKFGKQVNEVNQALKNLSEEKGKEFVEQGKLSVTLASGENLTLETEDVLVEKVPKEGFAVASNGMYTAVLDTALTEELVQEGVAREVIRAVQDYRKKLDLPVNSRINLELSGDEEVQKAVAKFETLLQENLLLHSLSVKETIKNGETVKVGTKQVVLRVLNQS
# B1: PmIleRS2 (Priestia megaterium NBRC 15308 = ATCC 14581) (protein)
# chain: T2 sequence (A0A0B6AVD3 1-1032)
# Key:
# PmIleRS1 [1] = target: T1, PmIleRS1; test: biochemical; conditions: read-out: kon
# PmIleRS1 [2] = target: T1, PmIleRS1; test: time courses fitted to slow-binding equation, Ki = koff/kon; assay type: biochemical; conditions: competitive, tight binding, 30 °C
# PmIleRS2 [3] = target: T2, PmIleRS2; test: biochemical
# PmIleRS2 [4] = target: T2, PmIleRS2; test: biochemical; remark: listed apart in the source
# PmIleRS1 [5] = target: T1, PmIleRS1; test: biochemical; conditions: read-out: koff
# [6] = substrate: CC[C@H](C)[C@H](N)C(=O)O; test: purified protein, by the assay type
# [7] = substrate: Nc1ncnc2c1ncn2[C@@H]1O[C@H](COP(=O)(O)OP(=O)(O)OP(=O)(O)O)[C@@H](O)[C@H]1O; test: purified protein, by the assay type
# [8] = substrate: Nc1ncnc2c1ncn2[C@@H]1O[C@H](COP(=O)(O)OP(=O)(O)OP(=O)(O)O)[C@@H](O)[C@H]1O; test: purified protein, by the assay type; conditions: 30.0 °C
# [9] = substrate: CCC[C@H](N)C(=O)O; test: purified protein, by the assay type; conditions: 30.0 °C
# [10] = substrate: CC[C@@H](C)[C@@H](N)C(=O)O; test: purified protein, by the assay type; conditions: 30.0 °C
# [11] = substrate: CC(C)[C@H](N)C(=O)O; test: purified protein, by the assay type; conditions: 30.0 °C
# [12] = substrate: CC[C@H](C)[C@H](N)C(=O)O; test: purified protein, by the assay type; conditions: 30.0 °C
molecule,measurement,setting,value
C/C(=C\C(=O)OCCCCCCCCC(=O)O)C[C@@H]1OC[C@H](C[C@@H]2O[C@H]2[C@@H](C)[C@H](C)O)[C@@H](O)[C@H]1O [mupirocin],kon,PmIleRS1 [1],1.51e+06 M⁻¹ s⁻¹
same,Ki,PmIleRS1 [2],0.285 ± 0.146 nM
same,Ki,PmIleRS2 [3],1040 ± 40 nM
same,Ki,PmIleRS2 [4],1080 ± 60 nM
same,koff,PmIleRS1 [5],0.00043 s⁻¹
B1,Km,[6],6.2 ± 0.8 µM
same,kcat/Km,[6],150000 M⁻¹ s⁻¹
same,Km,[6]; 30.0 °C,69.3 ± 5.5 µM
same,kcat/Km,[6]; 30.0 °C,940000 M⁻¹ s⁻¹
same,Km,[7],76.4 ± 1.4 µM
same,kcat,[7],0.96 ± 0.03 s⁻¹
same,kcat/Km,[7],10000 M⁻¹ s⁻¹
same,Km,[7]; 30.0 °C,(3.8 ± 0.2) × 10^3 uM
same,kcat/Km,[7]; 30.0 °C,20000 M⁻¹ s⁻¹
same,Km,[8],(1.6 ± 0.1) × 10^3 uM
same,kcat/Km,[8],40000 M⁻¹ s⁻¹
same,Km,[9],(7.97 ± 0.84) × 10^3 uM
same,kcat,[9],33 ± 1 s⁻¹
same,kcat/Km,[9],4100 M⁻¹ s⁻¹
same,Km,[10],(2.3 ± 0.1) × 10^3 uM
same,kcat,[10],1.54 ± 0.03 s⁻¹
same,kcat/Km,[10],670 M⁻¹ s⁻¹
same,Km,[11],(5.4 ± 0.4) × 10^3 uM
same,kcat,[11],39 ± 1 s⁻¹
same,kcat/Km,[11],7000 M⁻¹ s⁻¹
same,Km,[12],48.6 ± 1.9 µM
same,kcat/Km,[12],1.4e+06 M⁻¹ s⁻¹
